The target of series [1] is T1, Cdc42 labelled with the extrinsic fluorophore sNBD (UniProt P60953 1-191, sNBD fluorophore (site not stated)).
T1 construct: Cdc42, small GTPase; also called sNBD-labeled Cdc42
The series can be described thus: other fluorescence titration; Cdc42 labelled with the extrinsic fluorophore sNBD, PBD46 titrated; heat-purified and conventional PBD46 compared. As to conditions: both partners purified.

Series [2] deals with the molecule itself. The series can be described thus: LC-MS; LC-MS of the heat-treated PBD46 sample; major species at 10.23 kDa.

The text below walks through data of publication PMC13344149, “One-step purification of a bioactive PAK1-derived peptide” (Analytical biochemistry, 2025).

The Kd is the free concentration of one partner at which half of the binding sites on the other are occupied at equilibrium, for simple one-to-one binding. A word on the stoichiometry N: it is the number of molecules, sites or subunits per partner or assembly.

T1 sequence (P60953 whole entry): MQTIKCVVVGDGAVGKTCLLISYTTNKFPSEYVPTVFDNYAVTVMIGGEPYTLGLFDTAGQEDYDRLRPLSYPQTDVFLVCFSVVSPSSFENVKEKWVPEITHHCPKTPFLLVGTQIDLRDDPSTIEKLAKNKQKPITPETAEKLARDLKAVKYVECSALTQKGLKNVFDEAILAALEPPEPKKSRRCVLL

B1: PBD46, 46-residue peptide from PAK1 (PAK1 CRIB domain, residues 67-112) (peptide, UniProt Q13153 67-112, looked up)
chain: KKEKERPEISLPSDFEHTIHVGFDAVTGEFTGMPEQWARLLQTSNI
notes: The heat-purified and the conventionally purified sample are the same construct from the same host; also called PAK1-derived peptide; heat-purified PBD46; source: E. coli, as GST-PBD46
In turn, B1 gave a Kd in series [1] of approximately 83 nM. Also, in series [2], the “stoichiometry N” value is 2.
